The values that follow come from patent US10077295B2, “Glycoproteins having lipid mobilizing properties and therapeutic uses thereof” (Aston University, priority 2010, dated 2018).

For data set [1], the system named is murine epididymal adipocytes. The data set can be described thus: Lipolytic assay (glycerol release) in murine adipocytes. In kind it is cell-based, mouse. As for the experimental part:
Cell Culture and Purification of ZAG. Single-cell suspensions of white adipocytes were prepared from minced adipose deposits by incubation at 37° C. for 2 h in Krebs-Ringer biocarbonate buffer containing 1.5 mgml^−1 collagenase, and 4% bovine serum albumin under an atmosphere of 95% oxygen: 5% CO2 as previously described. For time-course studies adipocytes were suspended in DMEM containing 10% fetal calf serum at a concentration of 10^5 cells ml^−1 and maintained under an atmosphere of 10% CO2 in air at 37° C. Human 293 cells transfected with a plasmid containing human ZAG were seeded at a concentration of 10^5 cells ml^−1 in FreeStyle medium and maintained under an atmosphere of 5% CO2 in air at 37° C. Maximal protein levels (16 μgml^−1) were obtained after 14 days of culture. The media (200 ml) was then centrifuged at 700 g for 15 min to remove cells and concentrated into a volume of 1 ml of sterile PBS using an Amicon Ultra-15 centrifugal filter with a 10 kDa cut-off After measurement of the protein concentration of the sample (about 2 mg) it was added to 2 g DEAE cellulose suspended in 20 ml of 10 mM Tris, pH8.8 and stirred at 4° C. for 2 h. ZAG being negatively charged binds to the DEAE cellulose, which was sedimented by centrifugation (1500 g for 15 min), and eluted by stirring with 20 ml 10 mM Tris, pH8.8 containing 0.3M NaCl for 30 min at 4° C. The supernatant was washed and concentrated to a volume of 1 ml in sterile PBS using the Amicon centrifugal filter.
Lipolytic assay. Samples to be assayed were incubated with 10^5 to 2×10^5 adipocytes for 2 h in 1 ml Krebs-Ringer bicarbonate buffer, pH 7.2. The concentration of glycerol released was determined enzymatically by the method of Wieland (Wieland, O. Glycerol UV method. In Methods of Enzymatic Analysis (ed. Bergmeyer, H.U.) (Academic Press, London, UK, pp 1404-1409, 1974)). Control samples containing adipocytes alone were analysed to determine the spontaneous glycerol release. Activity was expressed as μmol glycerol released/10^5 adipocytes/2 h.

In a further data set the target is T1, human β1-AR (Homo sapiens, UniProt P08588).
T1 construct: host or cells: CHO-K1
T1 sequence (P08588 whole entry): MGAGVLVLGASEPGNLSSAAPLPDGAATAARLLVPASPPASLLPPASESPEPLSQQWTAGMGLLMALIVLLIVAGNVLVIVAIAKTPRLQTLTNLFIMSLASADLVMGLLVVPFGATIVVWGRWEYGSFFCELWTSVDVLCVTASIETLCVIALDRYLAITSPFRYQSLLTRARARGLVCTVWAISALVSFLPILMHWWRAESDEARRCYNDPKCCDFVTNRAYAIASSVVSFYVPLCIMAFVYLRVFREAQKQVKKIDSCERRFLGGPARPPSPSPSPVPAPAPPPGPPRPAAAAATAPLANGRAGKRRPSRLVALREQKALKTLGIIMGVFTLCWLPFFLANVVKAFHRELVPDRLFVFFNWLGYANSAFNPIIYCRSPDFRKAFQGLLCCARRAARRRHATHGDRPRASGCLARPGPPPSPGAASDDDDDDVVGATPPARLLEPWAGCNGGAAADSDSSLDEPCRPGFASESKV
The data set can be described thus: Cyclic AMP production in CHO-K1 cells transfected with β1-AR. In kind it is cell-based. As to conditions: any concentration. On the procedure: Binding Studies and Cyclic AMP Determination. CHO-K1 cells transfected with the human β1- and β2-AR obtained from University of Nottingham, UK, while CHOK1 cells transfected with the β3-AR were obtained from Astra Zeneca, Macclesfield, Cheshire, UK. Gene expression was under the control of hygromycin, together with a β-gal reporter construct, selected for resistance to G418. They were maintained in DMEM supplemented with 2 mM glutamine, hygromycin B ([…]), G418 ([…]), and 10% FCS, under an atmosphere of 10% CO2 in air. To determine the effect of agonists on cyclic AMP production, cells were grown in 24-well plates containing 1 ml of nutrient medium.

Data set [2] has as its system ob/ob mice. The data set can be described thus: ob/ob mice treated with ZAG i.v. with or without propanolol. In kind it is in vivo, mouse. The settings on record: ZAG alone. As for the experimental part: Animals. […] Male mice (about 20 weeks of age) were grouped into three per cage and kept in an air conditioned room at 22±2° C., with ad libitum feeding of a rat and mouse breeding diet (Special Diet Services, Witham, UK) and tap water. Mice were administered ZAG (50 μg, i.v. in 100 μl PBS) or PBS daily with or without propanolol (40 mgkg^−1, po, daily) and body weight and food and water intake were determined, as well as urinary glucose excretion and body temperature, determined by the use of a rectal thermometer (RS Components, Northants, UK). A glucose tolerance test was performed on day 3. […] Blood samples were removed from the tail vein at 15, 30, 60 and 120 min after glucose administration and used for the measurements of glucose and insulin. At the end of the experiment the animals were terminated by cervical dislocation, tissues removed and rapidly frozen in liquid nitrogen, and maintained at −80° C.
To determine whether ZAG can increase insulin signalling the effect on Glut4 expression was determined.

Data set [3] has as its system ob/ob mice. The data set can be described thus: Body weight loss by route of administration of ZAG in ob/ob mice. In kind it is in vivo, mouse. The settings on record: for Body weight loss / % of i.v. loss over the same time: 50 ug/day. As for the experimental part: The goal of the study was to compare the efficacy of ZAG via various routes of administration. Mice were orally administered 50 μg ZAG or PBS (control). The results of are shown in FIGS. 31, 32, 33 (8 day oral ZAG study); 36, 37, 40 (8 day oral ZAG plus propranolol study); and FIGS. 47, 48 (oral ZAG gavage study). As shown in these repeated studies, ZAG was unexpectedly shown to be effective in bringing about weight change when administered orally by simply mixing low doses of ZAG in the drinking water of mice without requiring systemic absorption of administered ZAG. Typical oral dosing of proteins, such as insulin, can require up to 10× (or mega dosing) the intravenous dose to achieve the same level of efficacy and such limited efficacy requires systemic absorption of such proteins.

B1: ZAG: recombinant full length human zinc-α2-glycoprotein (SEQ ID NO: 1) secreted by transfected HEK293F cells; lipid mobilizing factor (protein, listed as Homo sapiens)
chain: QENQDGRYSLTYIYTGLSKHVEDVPAFQALGSLNDLQFFRYNSKDRKSQPMGLWRQVEGMEDWKEDSQLQKAREDMETLKDIVEYYNDSNGSHVLQGRFGCEIENNRSSGAFWKYYYDGKDYIEFNKEIPAWVPFDPAAQITKQKWEAEPVYVQRAKAYLEEECPATLRKYLKYSKNILDRQDPPSVVVTSHQAPGEKKKLKCLAYDFYPGKIDVHWTRAGQVQEPELRGDVLHNGNGTYQSWVVVAVPPQDTAPYSCHVQHSSLAQPLVVPWEAS
As for B1, in data set [1] (compared with epididymal adipocytes), the “lipolytic effect in adipocytes from subcutaneous and visceral deposits” value was “considerably reduced”. Besides, the “lipolysis in epididymal adipocytes” value in data set [1] (mouse adipocytes) is reported as “stimulated lipolysis”. For the same molecule, in data set [1] (murine epididymal adipocytes), the “effect of a single freezing and thawing cycle on lipolytic activity” value was “destroyed”. Further, the “potency at inducing lipolysis compared with isoprenaline” value in data set [1] (on a molar basis) was “more potent at inducing lipolysis than isoprenaline on a molar basis”. For the same molecule, in the data set with human β1-AR, the “cyclic AMP production” value is on record as “no increase in cyclic AMP”. The “effect on liver lipids” value in the data set on ob/ob mice [2] is reported as “no effect on liver lipids”. Also, the “efficacy of lowering of urinary glucose, oral vs i.v.” value with ob/ob mice [3] (after 5 days of dosing) is recorded as “equally as good”. Besides, the Body weight loss in the data set with ob/ob mice [3] (intraveneous, 20 Days) is given as −9.0%; in the data set with ob/ob mice [3] (oral-casein (casein with ZAG in drinking water), 8 Days) it was −3.4%; with ob/ob mice [3] (oral-casein, 20 Days), −6.8%; in the data set on ob/ob mice [3] (oral-gavage (directly into the stomach), 8 Days), −2.3%; with ob/ob mice [3] (oral-water (in the drinking water), 8 Days) it was −4.3%; with ob/ob mice [3] (oral-water, 20 Days), −6.1%. For the same molecule, the “% of i.v. loss over the same time” value in the data set with ob/ob mice [3] (oral-casein, 8 Days) is listed as 57%; with ob/ob mice [3] (oral-casein, 20 Days), 76%; in the data set with ob/ob mice [3] (oral-gavage, 8 Days), 38%; with ob/ob mice [3] (oral-water, 8 Days) it was 72%; in the data set with ob/ob mice [3] (oral-water, 20 Days), 68%. Moreover, the “weight-loss efficacy of oral dosing relative to intravenous administration” value in the data set with ob/ob mice [3] (same dose) is reported as at most 75%.
